# Key:
# Assay in all cases: gcPBM; about 25 ug protein; PBS, 1% milk, 0.2 mg/ml BSA, salmon testes DNA, 0.03% Triton X-100
# Settings in all cases: tags: N-terminal GST (pGEX-4T-1), kept; label: surface-attached array probe
# [1] = molecular target: T1, AP2-HC D1 (Plasmodium falciparum, UniProt Q8IKR9 1316-1374)
# T1 sequence: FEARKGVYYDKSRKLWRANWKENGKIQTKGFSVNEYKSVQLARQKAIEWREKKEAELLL
# [2] = molecular target: T2, AP2-LT D1 (Plasmodium falciparum, UniProt Q8IAM1 2520-2577)
# T2 sequence: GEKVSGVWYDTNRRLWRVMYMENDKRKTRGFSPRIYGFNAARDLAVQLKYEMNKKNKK
# [3] = molecular target: T3, PF3D7_0420300 D1 (Plasmodium falciparum, UniProt Q8I1N6 1956-2015)
# T3 sequence: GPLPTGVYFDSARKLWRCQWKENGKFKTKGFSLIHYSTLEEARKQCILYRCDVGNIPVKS
binder,measurement,setting,value
CACACA_negctrl_site694 (dsDNA) DNA 1: TAATTTATTACCATGTAATTATTACGAATATAGGAT DNA 2: ATCCTATATTCGTAATAATTACATGGTAATAAATTA,binding signal,[1],"9.4 ln median PBM intensity, better of two orientations"
same,binding signal,[2],"8.68 ln median PBM intensity, better of two orientations"
CACACA_negctrl_site709 (dsDNA) DNA 1: TGAAAAAAAAAAAAAAAAAAAAGAAAAAAAAAAAAA DNA 2: TTTTTTTTTTTTTCTTTTTTTTTTTTTTTTTTTTCA,binding signal,[1],"8.7 ln median PBM intensity, better of two orientations"
same,binding signal,[2],"8.21 ln median PBM intensity, better of two orientations"
CACACA_negctrl_site1788 (dsDNA) DNA 1: TTTTATAAAATATAATATAATAATATATGTATAATA DNA 2: TATTATACATATATTATTATATTATATTTTATAAAA,binding signal,[1],"9.41 ln median PBM intensity, better of two orientations"
same,binding signal,[2],"8.62 ln median PBM intensity, better of two orientations"
CACACA_site1724 (dsDNA) DNA 1: TATATACGCAAACACACACACACATACACCCACATA DNA 2: TATGTGGGTGTATGTGTGTGTGTGTTTGCGTATATA,binding signal,[1],"11.9 ln median PBM intensity, better of two orientations"
same,binding signal,[2],"10.4 ln median PBM intensity, better of two orientations"
CACACA_site4184 (dsDNA) DNA 1: TGAATAAATAAACACACACACATATATATATCTGTA DNA 2: TACAGATATATATATGTGTGTGTGTTTATTTATTCA,binding signal,[1],"10.8 ln median PBM intensity, better of two orientations"
same,binding signal,[2],"10.1 ln median PBM intensity, better of two orientations"
CACACA_negctrl_site358 (dsDNA) DNA 1: TGTTTCCAAAAAAAAAAAAAAAAAAAAAAAAAAAAA DNA 2: TTTTTTTTTTTTTTTTTTTTTTTTTTTTTGGAAACA,binding signal,[1],"8.96 ln median PBM intensity, better of two orientations"
same,binding signal,[2],"8.01 ln median PBM intensity, better of two orientations"
CACACA_site2859 (dsDNA) DNA 1: AAAAAAAAAAAACACACACACACACCCACCCATACA DNA 2: TGTATGGGTGGGTGTGTGTGTGTGTTTTTTTTTTTT,binding signal,[3],"10.7 ln median PBM intensity, better of two orientations"
same,binding signal,[1],"11.8 ln median PBM intensity, better of two orientations"
same,binding signal,[2],"10.8 ln median PBM intensity, better of two orientations"
CACACA_site7363 (dsDNA) DNA 1: AAAAAAAAAAGACACACACACACACGGACACATACA DNA 2: TGTATGTGTCCGTGTGTGTGTGTGTCTTTTTTTTTT,binding signal,[1],"11.9 ln median PBM intensity, better of two orientations"
same,binding signal,[2],"10.2 ln median PBM intensity, better of two orientations"
CACACA_site5576 (dsDNA) DNA 1: AAAAAAAAAAAACACACACACACACCGACACATACA DNA 2: TGTATGTGTCGGTGTGTGTGTGTGTTTTTTTTTTTT,binding signal,[1],"12.5 ln median PBM intensity, better of two orientations"
same,binding signal,[2],"10.6 ln median PBM intensity, better of two orientations"
CACACA_negctrl_site1739 (dsDNA) DNA 1: ACGATTCAAAGGGAATATAAAATATTATTATCTATA DNA 2: TATAGATAATAATATTTTATATTCCCTTTGAATCGT,binding signal,[1],"9.48 ln median PBM intensity, better of two orientations"
same,binding signal,[2],"8.83 ln median PBM intensity, better of two orientations"
CACACA_site8010 (dsDNA) DNA 1: CACCCCCACAGACACACACACACACCGATATATATA DNA 2: TATATATATCGGTGTGTGTGTGTGTCTGTGGGGGTG,binding signal,[3],"10.5 ln median PBM intensity, better of two orientations"
same,binding signal,[1],"11.8 ln median PBM intensity, better of two orientations"
same,binding signal,[2],"10.8 ln median PBM intensity, better of two orientations"
CACACA_site4689 (dsDNA) DNA 1: ATAACCTAATAATACACACACATGAATATATATAAT DNA 2: ATTATATATATTCATGTGTGTGTATTATTAGGTTAT,binding signal,[1],"10.4 ln median PBM intensity, better of two orientations"
same,binding signal,[2],"9.77 ln median PBM intensity, better of two orientations"
CACACA_site2306 (dsDNA) DNA 1: CCCCCCCACAGACACACACACATACATACCACATAT DNA 2: ATATGTGGTATGTATGTGTGTGTGTCTGTGGGGGGG,binding signal,[3],"11 ln median PBM intensity, better of two orientations"
same,binding signal,[1],"11.9 ln median PBM intensity, better of two orientations"
same,binding signal,[2],"11 ln median PBM intensity, better of two orientations"
CACACA_site362 (dsDNA) DNA 1: CACCCACACCAACACACACACATATATATATATATA DNA 2: TATATATATATATATGTGTGTGTGTTGGTGTGGGTG,binding signal,[1],"11.7 ln median PBM intensity, better of two orientations"
same,binding signal,[2],"10.8 ln median PBM intensity, better of two orientations"
CACACA_negctrl_site1509 (dsDNA) DNA 1: TTTAAAAAATGTTATATTATATAATTAAAAAAAAAA DNA 2: TTTTTTTTTTAATTATATAATATAACATTTTTTAAA,binding signal,[1],"9.35 ln median PBM intensity, better of two orientations"
same,binding signal,[2],"8.38 ln median PBM intensity, better of two orientations"
CACACA_negctrl_site1720 (dsDNA) DNA 1: TTCTCAAAATTAAAATAACAGATTAACGAACTAACG DNA 2: CGTTAGTTCGTTAATCTGTTATTTTAATTTTGAGAA,binding signal,[1],"9.4 ln median PBM intensity, better of two orientations"
same,binding signal,[2],"8.7 ln median PBM intensity, better of two orientations"
CACACA_negctrl_site1599 (dsDNA) DNA 1: TTTTTAAATTATTTGAAAAAAAGAAAATTATAAACA DNA 2: TGTTTATAATTTTCTTTTTTTCAAATAATTTAAAAA,binding signal,[1],"9.26 ln median PBM intensity, better of two orientations"
same,binding signal,[2],"8.26 ln median PBM intensity, better of two orientations"
CACACA_site6215 (dsDNA) DNA 1: AAAAAAAAAAGACACACACACACATAAATATAAATA DNA 2: TATTTATATTTATGTGTGTGTGTGTCTTTTTTTTTT,binding signal,[3],"10.3 ln median PBM intensity, better of two orientations"
same,binding signal,[1],"12.2 ln median PBM intensity, better of two orientations"
